The results in this text go back to patent US20230407373A1 (priority 2020, published 2023).

One assay relates to SARS-CoV-2 gRNA. The assay is classed as binding. The settings on record: […]; LC-MS/MS; Probe I sample (first 199 lines of Table 2).
In assay [1] the test system is SARS-CoV-2 gRNA and sgRNAs. Type of assay: binding. The settings on record: for target (unweighted spectral count in RNP capture): Probe II capture, LC-MS/MS LFQ; for background (unweighted spectral count in control): no-probe control pull-down, used as background for Probe II; for target (unweighted spectral count of the protein in the RNP capture experiment): LC-MS/MS label-free quantification, probe pool not given; for back-ground (unweighted spectral count of the protein in the control experiment): protein background of the control (e.g. no-probe) experiment.

B1: DDX3Y (protein, UniProt O15523 2-660, looked up)
ATP-dependent RNA helicase …: SHVVVKNDPELDQQLANLDLNSEKQSGGASTASKGRYIPPHLRNREASKGFHDKDSSGWSCSKDKDAYSSFGSRDSRGKPGYFSERGSGSRGRFDDRGRSDYDGIGNRERPGFGRFERSGHSRWCDKSVEDDWSKPLPPSERLEQELFSGGNTGINFEKYDDIPVEATGSNCPPHIENFSDIDMGEIIMGNIELTRYTRPTPVQKHAIPIIKGKRDLMACAQTGSGKTAAFLLPILSQIYTDGPGEALKAVKENGRYGRRKQYPISLVLAPTRELAVQIYEEARKFSYRSRVRPCVVYGGADIGQQIRDLERGCHLLVATPGRLVDMMERGKIGLDFCKYLVLDEADRMLDMGFEPQIRRIVEQDTMPPKGVRHTMMFSATFPKEIQMLARDFLDEYIFLAVGRVGSTSENITQKVVWVEDLDKRSFLLDILGATGSDSLTLVFVETKKGADSLEDFLYHEGYACTSIHGDRSQRDREEALHQFRSGKSPILVATAVAARGLDISNVRHVINFDLPSDIEEYVHRIGRTGRVGNLGLATSFFNEKNMNITKDLLDLLVEAKQEVPSWLENMAYEHHYKGGSRGRSKSNRFSGGFGARDYRQSSGSSSSGFGASRGSSSRSGGGGYGNSRGFGGGGYGGFYNSDGYGGNYNSQGVDWWGN
For the molecule B1, the “target (unweighted spectral count of the protein in the RNP capture)” value in the assay on SARS-CoV-2 gRNA amounted to 8. Further, in assay [1], the “target (unweighted spectral count in RNP capture)” value worked out at 27 and the “background (unweighted spectral count in control)” value was determined as 1.

B2: SRSF2 (protein, UniProt Q01130 2-221, looked up)
Serine/arginine-rich splicing …: SYGRPPPDVEGMTSLKVDNLTYRTSPDTLRRVFEKYGRVGDVYIPRDRYTKESRGFAFVRFHDKRDAEDAMDAMDGAVLDGRELRVQMARYGRPPDSHHSRRGPPPRRYGGGGYGRRSRSPRRRRRSRSRSRSRSRSRSRSRYSRSKSRSRTRSRSRSTSKSRSARRSKSKSSSVSRSRSRSRSRSRSRSPPPVSKRESKSRSRSKSPPKSPEEEGAVSS
As to B2, the “target (unweighted spectral count of the protein in the RNP capture)” value in the assay with SARS-CoV-2 gRNA is given as 12. For the same molecule, in assay [1], the “target (unweighted spectral count of the protein in the RNP capture experiment)” value is on record as 11 and the “back-ground (unweighted spectral count of the protein in the control experiment)” value stood at 2.

B3: RBMS1 (protein, UniProt P29558 1-406, looked up)
RNA-binding motif, …: MGKVWKQQMYPQYATYYYPQYLQAKQSLVPAHPMAPPSPSTTSSNNNSSSSSNSGWDQLSKTNLYIRGLPPHTTDQDLVKLCQPYGKIVSTKAILDKTTNKCKGYGFVDFDSPAAAQKAVSALKASGVQAQMAKQQEQDPTNLYISNLPLSMDEQELENMLKPFGQVISTRILRDSSGTSRGVGFARMESTEKCEAVIGHFNGKFIKTPPGVSAPTEPLLCKFADGGQKKRQNPNKYIPNGRPWHREGEVRLAGMTLTYDPTTAAIQNGFYPSPYSIATNRMITQTSITPYIASPVSAYQVQSPSWMQPQPYILQHPGAVLTPSMEHTMSLQPASMISPLAQQMSHLSLGSTGTYMPATSAMQGAYLPQYAHMQTTAVPVEEASGQQQVAVETSNDHSPYTFQPNK
As for B3, the “target (unweighted spectral count of the protein in the RNP capture)” value in the assay with SARS-CoV-2 gRNA was 11. In addition, in assay [1], the “target (unweighted spectral count in RNP capture)” value stood at 15 and the “background (unweighted spectral count in control)” value stood at 1.

B4: PA2G4 (protein, UniProt Q9UQ80 2-394, looked up)
Proliferation-associated …: SGEDEQQEQTIAEDLVVTKYKMGGDIANRVLRSLVEASSSGVSVLSLCEKGDAMIMEETGKIFKKEKEMKKGIAFPTSISVNNCVCHFSPLKSDQDYILKEGDLVKIDLGVHVDGFIANVAHTFVVDVAQGTQVTGRKADVIKAAHLCAEAALRLVKPGNQNTQVTEAWNKVAHSFNCTPIEGMLSHQLKQHVIDGEKTIIQNPTDQQKKDHEKAEFEVHEVYAVDVLVSSGEGKAKDAGQRTTIYKRDPSKQYGLKMKTSRAFFSEVERRFDAMPFTLRAFEDEKKARMGVVECAKHELLQPFNVLYEKEGEFVAQFKFTVLLMPNGPMRITSGPFEPDLYKSEMEVQDAELKALLQSSASRKTQKKKKKKASKTAENATSGETLEENEAGD
For B4, the “target (unweighted spectral count of the protein in the RNP capture)” value in the assay on SARS-CoV-2 gRNA was determined as 7. In assay [1], the “target (unweighted spectral count of the protein in the RNP capture experiment)” value was found to be 5 and the “back-ground (unweighted spectral count of the protein in the control experiment)” value is listed as 1.
